Test system: Escherichia coli TOP10
Experiment: shrunken log2 fold change of peptide-encoding DNA abundance (4.5 h post-induction vs induction); higher = less antimicrobial activity (less host growth inhibition)
Conditions: time post-induction: 4.5 h; library: site-saturation at positions 5, 18, 19, 20
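Also: peptides expressed intracellularly from a pBAD plasmid library in pooled LB shake-flask culture, induced with 0.3% L-arabinose, DNA abundance read by NGS, three biological replicates, DESeq2 with apeglm shrinkage.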

| Sequence | shrunken log2 fold change |
| --- | --- |
| RRIRYRPPRLPRPRPRPCADPRP | -0.21 |
| RRIRYRPPRLPRPRPRPCARPRP | -0.0708 |
| RRIRYRPPRLPRPRPRPCCAPRP | -0.437 |
| RRIRYRPPRLPRPRPRPCCDPRP | -0.479 |
| RRIRYRPPRLPRPRPRPCCVPRP | -0.422 |
| RRIRYRPPRLPRPRPRPCFIPRP | -0.321 |
| RRIRYRPPRLPRPRPRPCHNPRP | -1.52 |
| RRIRYRPPRLPRPRPRPCIKPRP | 1.75 |
| RRIRYRPPRLPRPRPRPCKPPRP | -0.00151 |
| RRIRYRPPRLPRPRPRPCKQPRP | 0.00515 |
| RRIRYRPPRLPRPRPRPCMCPRP | -0.516 |
| RRIRYRPPRLPRPRPRPCMLPRP | -1.02 |
| RRIRYRPPRLPRPRPRPCNMPRP | -0.873 |
| RRIRYRPPRLPRPRPRPCPQPRP | -0.0849 |
| RRIRYRPPRLPRPRPRPCSKPRP | -0.012 |
| RRIRYRPPRLPRPRPRPCTAPRP | -1.4 |
| RRIRYRPPRLPRPRPRPCVHPRP | -0.0274 |
| RRIRYRPPRLPRPRPRPCWDPRP | -0.0738 |
| RRIRYRPPRLPRPRPRPCWGPRP | -0.204 |
| RRIRYRPPRLPRPRPRPDCQPRP | -0.0127 |
| RRIRYRPPRLPRPRPRPDDHPRP | -0.264 |
| RRIRYRPPRLPRPRPRPDEKPRP | -0.102 |
| RRIRYRPPRLPRPRPRPDGDPRP | 0.00902 |
| RRIRYRPPRLPRPRPRPDGVPRP | -0.0741 |
| RRIRYRPPRLPRPRPRPDISPRP | -0.415 |

| Sequence | shrunken log2 fold change |
| --- | --- |
| RRIRYRPPRLPRPRPRPDITPRP | -0.385 |
| RRIRYRPPRLPRPRPRPDIWPRP | -0.00585 |
| RRIRYRPPRLPRPRPRPDKMPRP | -0.0477 |
| RRIRYRPPRLPRPRPRPDKRPRP | -0.168 |
| RRIRYRPPRLPRPRPRPDLKPRP | -0.21 |
| RRIRYRPPRLPRPRPRPDMLPRP | -0.0808 |
| RRIRYRPPRLPRPRPRPDPEPRP | -0.345 |
| RRIRYRPPRLPRPRPRPDPQPRP | -0.0137 |
| RRIRYRPPRLPRPRPRPDQSPRP | -0.0117 |
| RRIRYRPPRLPRPRPRPDVSPRP | -0.248 |
| RRIRYRPPRLPRPRPRPDWWPRP | 0.0124 |
| RRIRYRPPRLPRPRPRPDYDPRP | -0.476 |
| RRIRYRPPRLPRPRPRPDYMPRP | -0.761 |
| RRIRYRPPRLPRPRPRPEAAPRP | 0.319 |
| RRIRYRPPRLPRPRPRPEAKPRP | -0.109 |
| RRIRYRPPRLPRPRPRPECCPRP | -0.0698 |
| RRIRYRPPRLPRPRPRPECVPRP | -0.282 |
| RRIRYRPPRLPRPRPRPEEMPRP | -0.0902 |
| RRIRYRPPRLPRPRPRPEGIPRP | -0.0155 |
| RRIRYRPPRLPRPRPRPEGLPRP | -0.0136 |
| RRIRYRPPRLPRPRPRPEHAPRP | 0.0635 |
| RRIRYRPPRLPRPRPRPEHQPRP | -0.464 |
| RRIRYRPPRLPRPRPRPEIKPRP | -0.114 |
| RRIRYRPPRLPRPRPRPEKRPRP | 0.00709 |
| RRIRYRPPRLPRPRPRPEKSPRP | -0.0559 |

| Sequence | shrunken log2 fold change |
| --- | --- |
| RRIRYRPPRLPRPRPRPEKYPRP | -0.00973 |
| RRIRYRPPRLPRPRPRPELGPRP | -0.00146 |
| RRIRYRPPRLPRPRPRPELVPRP | 0.25 |
| RRIRYRPPRLPRPRPRPEPEPRP | 0.0661 |
| RRIRYRPPRLPRPRPRPEPFPRP | 0.0898 |
| RRIRYRPPRLPRPRPRPERTPRP | 0.0654 |
| RRIRYRPPRLPRPRPRPESAPRP | -0.146 |
| RRIRYRPPRLPRPRPRPESSPRP | -0.0327 |
| RRIRYRPPRLPRPRPRPESWPRP | -0.0403 |
| RRIRYRPPRLPRPRPRPEVWPRP | 0.446 |
| RRIRYRPPRLPRPRPRPEWYPRP | -0.00146 |
| RRIRYRPPRLPRPRPRPEYYPRP | -0.0128 |
| RRIRYRPPRLPRPRPRPFCKPRP | -1.59 |
| RRIRYRPPRLPRPRPRPFCLPRP | -1.22 |
| RRIRYRPPRLPRPRPRPFCTPRP | -0.425 |
| RRIRYRPPRLPRPRPRPFDMPRP | -0.195 |
| RRIRYRPPRLPRPRPRPFENPRP | -0.257 |
| RRIRYRPPRLPRPRPRPFEVPRP | -0.0115 |
| RRIRYRPPRLPRPRPRPFFDPRP | 1.09 |
| RRIRYRPPRLPRPRPRPFHDPRP | -0.195 |
| RRIRYRPPRLPRPRPRPFHEPRP | -0.245 |
| RRIRYRPPRLPRPRPRPFHGPRP | 0.0221 |
| RRIRYRPPRLPRPRPRPFIGPRP | -1.58 |
| RRIRYRPPRLPRPRPRPFILPRP | -1.19 |
| RRIRYRPPRLPRPRPRPFIMPRP | -0.313 |

| Sequence | shrunken log2 fold change |
| --- | --- |
| RRIRYRPPRLPRPRPRPFKNPRP | -0.426 |
| RRIRYRPPRLPRPRPRPFKVPRP | -0.123 |
| RRIRYRPPRLPRPRPRPFLKPRP | -0.122 |
| RRIRYRPPRLPRPRPRPFMCPRP | -0.233 |
| RRIRYRPPRLPRPRPRPFMVPRP | -1.05 |
| RRIRYRPPRLPRPRPRPFNDPRP | -0.102 |
| RRIRYRPPRLPRPRPRPFPAPRP | -0.467 |
| RRIRYRPPRLPRPRPRPFPVPRP | -0.149 |
| RRIRYRPPRLPRPRPRPFQFPRP | 0.015 |
| RRIRYRPPRLPRPRPRPFQIPRP | -0.0359 |
| RRIRYRPPRLPRPRPRPFRLPRP | -0.0183 |
| RRIRYRPPRLPRPRPRPFTHPRP | -0.187 |
| RRIRYRPPRLPRPRPRPFTRPRP | -0.0174 |
| RRIRYRPPRLPRPRPRPFVPPRP | -0.285 |
| RRIRYRPPRLPRPRPRPFYIPRP | -1.26 |
| RRIRYRPPRLPRPRPRPFYLPRP | -0.955 |
| RRIRYRPPRLPRPRPRPGAGPRP | 0.0814 |
| RRIRYRPPRLPRPRPRPGCMPRP | -0.546 |
| RRIRYRPPRLPRPRPRPGCNPRP | -0.172 |
| RRIRYRPPRLPRPRPRPGDIPRP | -0.0107 |
| RRIRYRPPRLPRPRPRPGFRPRP | -0.322 |
| RRIRYRPPRLPRPRPRPGGMPRP | -0.297 |
| RRIRYRPPRLPRPRPRPGHCPRP | -0.0945 |
| RRIRYRPPRLPRPRPRPGIAPRP | -0.269 |
| RRIRYRPPRLPRPRPRPGINPRP | -0.227 |

| Sequence | shrunken log2 fold change |
| --- | --- |
| RRIRYRPPRLPRPRPRPGIRPRP | 0.0108 |
| RRIRYRPPRLPRPRPRPGKAPRP | -0.00206 |
| RRIRYRPPRLPRPRPRPGLHPRP | -0.265 |
| RRIRYRPPRLPRPRPRPGLRPRP | 0.0396 |
| RRIRYRPPRLPRPRPRPGRHPRP | -0.203 |
| RRIRYRPPRLPRPRPRPGSAPRP | -0.24 |
| RRIRYRPPRLPRPRPRPGSLPRP | -0.0848 |
| RRIRYRPPRLPRPRPRPGSYPRP | -0.349 |
| RRIRYRPPRLPRPRPRPGTSPRP | -0.0454 |
| RRIRYRPPRLPRPRPRPGVRPRP | 0.0103 |
| RRIRYRPPRLPRPRPRPGYCPRP | -0.235 |
| RRIRYRPPRLPRPRPRPGYKPRP | -0.978 |
| RRIRYRPPRLPRPRPRPGYVPRP | -1.05 |
| RRIRYRPPRLPRPRPRPHARPRP | -0.163 |
| RRIRYRPPRLPRPRPRPHDAPRP | -0.27 |
| RRIRYRPPRLPRPRPRPHDCPRP | -0.00448 |
| RRIRYRPPRLPRPRPRPHECPRP | 0.0244 |
| RRIRYRPPRLPRPRPRPHETPRP | -0.0345 |
| RRIRYRPPRLPRPRPRPHFCPRP | -0.428 |
| RRIRYRPPRLPRPRPRPHFYPRP | -0.662 |
| RRIRYRPPRLPRPRPRPHHWPRP | -0.892 |
| RRIRYRPPRLPRPRPRPHIHPRP | -0.745 |
| RRIRYRPPRLPRPRPRPHKKPRP | -0.0787 |
| RRIRYRPPRLPRPRPRPHKSPRP | -0.526 |
| RRIRYRPPRLPRPRPRPHMKPRP | -0.489 |

| Sequence | shrunken log2 fold change |
| --- | --- |
| RRIRYRPPRLPRPRPRPHNDPRP | -0.692 |
| RRIRYRPPRLPRPRPRPHNTPRP | -1.28 |
| RRIRYRPPRLPRPRPRPHPRPRP | -0.392 |
| RRIRYRPPRLPRPRPRPHPYPRP | -0.449 |
| RRIRYRPPRLPRPRPRPHTGPRP | -1.06 |
| RRIRYRPPRLPRPRPRPHTMPRP | -0.604 |
| RRIRYRPPRLPRPRPRPHVFPRP | -0.0822 |
| RRIRYRPPRLPRPRPRPHWCPRP | -0.0867 |
| RRIRYRPPRLPRPRPRPHYCPRP | -0.403 |
| RRIRYRPPRLPRPRPRPIADPRP | 0.0616 |
| RRIRYRPPRLPRPRPRPIAGPRP | -0.107 |
| RRIRYRPPRLPRPRPRPICQPRP | -0.087 |
| RRIRYRPPRLPRPRPRPIFAPRP | 0.159 |
| RRIRYRPPRLPRPRPRPIFDPRP | -0.737 |
| RRIRYRPPRLPRPRPRPIFLPRP | -0.246 |
| RRIRYRPPRLPRPRPRPIFVPRP | -0.418 |
| RRIRYRPPRLPRPRPRPIFWPRP | 0.0187 |
| RRIRYRPPRLPRPRPRPIFYPRP | -0.638 |
| RRIRYRPPRLPRPRPRPIGEPRP | -0.135 |
| RRIRYRPPRLPRPRPRPIGFPRP | 0.0062 |
| RRIRYRPPRLPRPRPRPIHWPRP | -0.182 |
| RRIRYRPPRLPRPRPRPIIAPRP | -1.18 |
| RRIRYRPPRLPRPRPRPIIIPRP | -0.161 |
| RRIRYRPPRLPRPRPRPIKNPRP | -0.275 |
| RRIRYRPPRLPRPRPRPIKPPRP | -0.0229 |

From the supplement of paper PMC9112550, “Optimization of the antimicrobial peptide Bac7 by deep mutational scanning” (BMC Biology, 2022)
